Our source for the increase of the fraction bound against wild-type Gβ5, fold reduction of binding against wild-type Gβ5 and percent bound values is article PMC2920065.

A value given as a limit tells only on which side of the number the result lay.

Experiment [1] addresses GST fusion of the wild type DEP domain of RGS7 (R7-DEP) (bovine) (UniProt O46470). Description: pull-down.
In experiment [2] the target is GST-DEP F107A/F110A double mutant (bovine) (UniProt O46470). The experiment is described as follows: pull-down.

In turn, “Gβ5 D259A mutant in complex with the RGS7^249-469 construct (from UniProt O46470 249-469)” gave an increase of the fraction bound against wild-type Gβ5 in experiment [1] of 10%. In turn, “Gβ5 F284A mutant in complex with the RGS7^249-469 construct (from UniProt O46470 249-469)” came in with a fold reduction of binding against wild-type Gβ5 in experiment [1] of 5 fold. The same measure, in the same setting: as for “Gβ5 I282A/I283A double mutant in complex with the RGS7^249-469 construct (from UniProt O46470 249-469)”, the figure is 5 fold.

“complex of wild-type Gβ5 with the RGS7^249-469 construct (from UniProt O46470 249-469)”: the percent bound is 12% in experiment [2] and greater than 50% in experiment [1].
